# Measured values published in publication PMC3861647.
# Molecular target: MBP-RU678 (human)
# Assay: ITC; MicroCal ITC200, 25 °C, HBS (10 mM HEPES, 150 mM NaCl, pH 7.4); cell: 50 μM MBP-RU678; syringe: 0.5 mM Srr1-BR or Srr2-BR; single binding mode
substance,measurement,value
Srr2-BR (untagged recombinant binding region of Srr2) (domain or fragment),Kd,12 µM
same,stoichiometry N,1
Srr1-BR (untagged recombinant binding region of Srr1) (domain or fragment),Kd,69 µM
same,stoichiometry N,1
